Experiments:
[1] = Transmission electron microscopy (TEM); type: physicochemical; details: 2.5 mg/ml peptide stocks
Method: Transmission Electron Microscopy (TEM)
TEM images were collected using a Jeol 1200 EX transmission electron microscope (Jeol Ltd., Tokyo, Japan) at an excitation voltage of 80 kV. For each sample, the formvar and carbon-coated side of a 100-mesh copper or nickel grid was positioned on a 5 μl drop of protein solution for 5 minutes. Afterwards, it was positioned on a 100 μl drop of PBS for 2 minutes, followed by three 2-minute incubations with a 100 μl drop of distilled water. The grids were then stained for 2 minutes with a 100 μl drop of 2% (m/v) methylcellulose with 0.4% uranyl acetate pH 4. Excess fluid was removed by streaking the side of the grids over filter paper, and the grids were subsequently dried under a lamp. Samples were analysed at a magnification of 10K.

[2] = molecular target: T1, Escherichia coli HSP70 family member DnaK (Escherichia coli, UniProt P0A6Y8); test: ELISA: binding of DnaK to immobilized (misfolded) protein ligands
T1 construct: purchased Stressgen (Ann Arbor, Mich., USA) SPP-630
T1 sequence (P0A6Y8 whole entry): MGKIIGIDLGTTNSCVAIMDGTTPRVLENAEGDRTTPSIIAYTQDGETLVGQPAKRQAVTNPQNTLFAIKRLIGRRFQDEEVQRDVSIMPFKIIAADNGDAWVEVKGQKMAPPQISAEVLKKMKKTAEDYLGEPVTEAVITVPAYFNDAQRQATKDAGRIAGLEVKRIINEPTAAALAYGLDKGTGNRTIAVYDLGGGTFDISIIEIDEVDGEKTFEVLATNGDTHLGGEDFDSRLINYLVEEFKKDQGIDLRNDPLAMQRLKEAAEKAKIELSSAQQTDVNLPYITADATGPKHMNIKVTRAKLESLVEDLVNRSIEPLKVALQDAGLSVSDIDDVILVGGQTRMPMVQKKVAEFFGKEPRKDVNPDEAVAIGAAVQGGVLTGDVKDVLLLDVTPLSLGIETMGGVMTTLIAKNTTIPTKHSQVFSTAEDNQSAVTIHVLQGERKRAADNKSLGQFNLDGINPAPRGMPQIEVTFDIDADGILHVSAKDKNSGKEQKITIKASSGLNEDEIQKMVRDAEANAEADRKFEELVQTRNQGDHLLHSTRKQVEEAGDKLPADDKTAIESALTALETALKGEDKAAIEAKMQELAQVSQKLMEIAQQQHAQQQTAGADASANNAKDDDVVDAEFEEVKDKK
Method: Recombinant Escherichia coli (E. coli) DnaK was purchased from Stressgen (Ann Arbor, Mich., USA; SPP-630). For the binding studies first lot B502468 (100 μg, lot A) and then lot 05240609 (200 μg, lot B) was used.
(§1) Binding of chaperones to immobilized (misfolded) protein ligands was determined using an enzyme linked immuno sorbent assay (ELISA) approach. For this purpose 50 μl/well of potential ligands at indicated concentrations or coat buffer only for control and background measurement purposes, were coated overnight at 4° C. or coated for 1 h at room temperature, with motion, in 50 mM NaHCO3 pH 9.6 (coat buffer). In general, ligands were coated at 5 μg/ml, unless stated otherwise. For example, BiP binding peptides 6BB# and oxLDL were coated at 50 μg/ml. Native haemoglobin (Sigma-Aldrich, H7379), albumin, IgIV Gammagard and ovalbumin controls were prepared from lyophilized stocks. The controls were prepared by dissolving lyophilized proteins at 1 mg/ml in PBS upon resuspending by pipetting, followed by a 30 minutes period at the roller device, at room temperature. The protein solutions were centrifuged for 10 minutes at 16,000*g and diluted in coat buffer. After coating the plates were washed at least three times with 50 mM Tris-HCl pH 7.3, 150 mM NaCl, 0.1% v/v Tween20, and blocked with Blocking reagent (Roche Diagnostics, Almere, The Netherlands; 11112589001), for 1 h at room temperature, with motion. Plates were washed three times and incubated in triplicate with indicated chaperone dilution series, at 50 μl/well, for 1 h at room temperature, with constant motion. For HSP90, 5 mM DTT is incorporated in the binding buffer (PBS/0.1% Tween20) to avoid unwanted disulfide bond formation of the HSP90. Plates were washed three times and incubated with anti-FLAG antibody (mouse antibody, M2, peroxidase conjugate; Sigma, A-8592) for BiP-FLAG-His, anti-His-tag antibody (Mouse Monoclonal Antibody, Cat. No. 70796, Novagen [0.2 mg/ml]) for HSP60, a 1:1 mix of 500-fold diluted anti-HSP90beta antibodies (Stressgen, SPA-643 [mouse monoclonal IgM], SPA-646 [rabbit polyclonal]) for HSP90 and an anti-DnaK antibody (Stressgen, 023SPA-880D [mouse monoclonal antibody]) for DnaK. After four wash cycles, secondary antibodies were added to the wells when required, 50 μl/well, for 45′ at room temperature, with motion. RAMPO and SWARPO were used at 3000 times dilution. […] In a second experiment with more immobilized misfolded proteins and controls, the detection of bound HSP90 with the mix of two anti-HSP90 antibodies was achieved by mixing 1:1500 SWARPO with 1:3000 RAMPO. After 5 washes with wash buffer followed by two washes with PBS, binding of antibodies was assessed. Bound anti-FLAG-PO, peroxidase-conjugated rabbit anti-mouse immunoglobulins (RAMPO, P0260, DAKOCytomation, Glostrup, Denmark) or peroxidase-coupled swine anti-rabbit immunoglobulins (SWARPO, P0217, DAKOCytomation) was visualized with tetramethylbenzidine (TMB, #45.01.20,/#45.014.01, Biosource, Nivelles, Belgium). The reaction was stopped after 5 minutes with 1% H2SO4 in H2O. Plates were read at 450 nm. Triplicates were averaged and standard deviations calculated. Background signals obtained with buffer-coated wells were subtracted (binding of primary antibody to empty wells), as well as background signals obtained with ligand-coated wells in which the chaperones were omitted (binding of primary and secondary antibody to coated ligands). Subsequently, sub-optimal concentrations of chaperones for binding to misfolded protein ligands are determined, and these concentrations are used for inhibition studies. […] We have previously identified that a sub-fraction of IgIV molecules has affinity for misfolded proteins comprising crossbeta structure (pending patent application). Moreover, we identified that the sub-fraction of IgIV molecules directly binds to crossbeta structure and/or crossbeta structure induced conformation (not shown; pending patent application). […]

[3] = molecular target: T2, human BiP (Homo sapiens, UniProt P11021); test: ELISA: binding of BiP-FLAG-His to immobilized (misfolded) protein ligands; details: ligands coated at 5 μg/ml; 6BB peptides and oxLDL 50 μg/ml
T2 construct: The human BiP gene except the signal peptide encoding region was obtained from Geneart (Germany); linker […]; made in house; host or cells: HEK 293E cells, transient transfection, PABC674 vector; secreted into the medium
T2 sequence (P11021 19-654): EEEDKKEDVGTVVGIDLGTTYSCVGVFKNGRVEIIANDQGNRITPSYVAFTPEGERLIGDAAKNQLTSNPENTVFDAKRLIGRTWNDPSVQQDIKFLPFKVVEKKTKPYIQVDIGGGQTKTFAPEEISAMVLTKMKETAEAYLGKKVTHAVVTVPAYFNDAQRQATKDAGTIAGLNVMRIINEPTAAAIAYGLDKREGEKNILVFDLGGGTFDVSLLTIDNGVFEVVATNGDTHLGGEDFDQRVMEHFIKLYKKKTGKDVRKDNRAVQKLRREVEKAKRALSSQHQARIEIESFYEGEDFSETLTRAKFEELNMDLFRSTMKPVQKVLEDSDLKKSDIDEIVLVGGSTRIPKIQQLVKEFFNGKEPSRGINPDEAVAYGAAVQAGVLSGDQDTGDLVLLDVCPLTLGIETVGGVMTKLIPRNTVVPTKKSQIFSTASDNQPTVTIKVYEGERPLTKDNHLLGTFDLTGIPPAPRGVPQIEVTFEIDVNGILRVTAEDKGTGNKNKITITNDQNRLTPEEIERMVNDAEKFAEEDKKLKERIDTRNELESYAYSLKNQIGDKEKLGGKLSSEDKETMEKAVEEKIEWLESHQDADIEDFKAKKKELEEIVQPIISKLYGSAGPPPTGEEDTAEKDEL
Method: Enzyme Linked Immunosorbent Assay for Testing of Chaperone Binding to Misfolded Proteins
as §1

[4] = molecular target: T2, human BiP; test: Competition ELISA: BiP binding to misfolded proteins under influence of crossbeta binding compounds; details: fixed sub-optimal BiP concentration
Method: Binding of chaperones to immobilized (misfolded) protein ligands was determined using an enzyme linked immuno sorbent assay (ELISA) approach. For this purpose 50 μl/well of potential ligands at indicated concentrations or coat buffer only for control and background measurement purposes, were coated overnight at 4° C. or coated for 1 h at room temperature, with motion, in 50 mM NaHCO3 pH 9.6 (coat buffer). In general, ligands were coated at 5 μg/ml, unless stated otherwise. For example, BiP binding peptides 6BB# and oxLDL were coated at 50 μg/ml. Native haemoglobin (Sigma-Aldrich, H7379), albumin, IgIV Gammagard and ovalbumin controls were prepared from lyophilized stocks. The controls were prepared by dissolving lyophilized proteins at 1 mg/ml in PBS upon resuspending by pipetting, followed by a 30 minutes period at the roller device, at room temperature. The protein solutions were centrifuged for 10 minutes at 16,000*g and diluted in coat buffer. After coating the plates were washed at least three times with 50 mM Tris-HCl pH 7.3, 150 mM NaCl, 0.1% v/v Tween20, and blocked with Blocking reagent (Roche Diagnostics, Almere, The Netherlands; 11112589001), for 1 h at room temperature, with motion. Plates were washed three times and incubated in triplicate with indicated chaperone dilution series, at 50 μl/well, for 1 h at room temperature, with constant motion. For HSP90, 5 mM DTT is incorporated in the binding buffer (PBS/0.1% Tween20) to avoid unwanted disulfide bond formation of the HSP90. […] After four wash cycles, secondary antibodies were added to the wells when required, 50 μl/well, for 45′ at room temperature, with motion. RAMPO and SWARPO were used at 3000 times dilution. […] In a second experiment with more immobilized misfolded proteins and controls, the detection of bound HSP90 with the mix of two anti-HSP90 antibodies was achieved by mixing 1:1500 SWARPO with 1:3000 RAMPO. After 5 washes with wash buffer followed by two washes with PBS, binding of antibodies was assessed. Bound anti-FLAG-PO, peroxidase-conjugated rabbit anti-mouse immunoglobulins (RAMPO, P0260, DAKOCytomation, Glostrup, Denmark) or peroxidase-coupled swine anti-rabbit immunoglobulins (SWARPO, P0217, DAKOCytomation) was visualized with tetramethylbenzidine (TMB, #45.01.20,/#45.014.01, Biosource, Nivelles, Belgium). The reaction was stopped after 5 minutes with 1% H2SO4 in H2O. Plates were read at 450 nm. Triplicates were averaged and standard deviations calculated. Background signals obtained with buffer-coated wells were subtracted (binding of primary antibody to empty wells), as well as background signals obtained with ligand-coated wells in which the chaperones were omitted (binding of primary and secondary antibody to coated ligands). Subsequently, sub-optimal concentrations of chaperones for binding to misfolded protein ligands are determined, and these concentrations are used for inhibition studies.
In a subsequent study we analysed whether BiP interacts directly with the crossbeta structure, by performing ELISA binding studies with a fixed sub-optimal concentration of BiP and concentration series of crossbeta binding compounds. The results are depicted in FIGS. 12, 13 and Table 7. Binding of BiP without added crossbeta binding compounds was set to 100%.

[5] = molecular target: T2, human BiP; test: ELISA: binding of BiP in cell culture supernatant to immobilized misfolded proteins; details: undiluted supernatant of 293E cells overexpressing BiP; ligands coated at 5 μg/ml, Aβ 20 μg/ml
Method: Binding of BiP to Misfolded Proteins with Crossbeta Structure
Proteins at 5 μg/ml were coated for 1 h at room temperature with agitation, in Microlon high-binding ELISA plates (Greiner) in 50 mM NaHCO3 pH 9.6, except for Aβ that was coated at 20 μg/ml. Buffer was coated as negative control. A twofold dilutions series of cell culture supernatant of HEK 293E cells overexpressing BiP was also coated to the plate for anti-FLAG-tag antibody control purposes. Plates were washed and blocked with ½*Blocking reagent (Roche). Undiluted cell culture supernatant enriched with 0.1% Tween20 was added to the wells with immobilized protein ligands and incubated for 1 h at room temperature with agitation. Medium was discarded and the plate was washed with PBS with 0.1% v/v Tween20. Mouse monoclonal anti-FLAG-tag antibody (Sigma, A8592, anti-FLAG M2PO conjugate) was diluted 1000× in PBS/0.1% Tween20 and added to all wells, including those that are coated with cell culture supernatant. After a 1 h incubation at room temperature with agitation and after washing, wells were overlayed with 3000× diluted RAMPO (DAKOCytomation) in PBS/0.1% Tween20. After 30 minutes the plate was washed and bound peroxidase was visualised with tetramethylbenzidine (TMB, #45.103.20/#45.014.01, Biosource, Nivelles, Belgium). The reaction was stopped after 5 minutes with 10% H2SO4 in H2O. Plates were read at 450 nm.

| Substance | TEM [1] | Binding of concentration series of DnaK to coated ligand [2] | Binding of concentration series of BiP to coated ligand [3] | Influence of Congo red on interaction of BiP with misfolded protein ([4]; concentration series of Congo red) | Influence of ThS on interaction of BiP with misfolded protein ([4]; concentration series of ThS) | Influence of ThT on interaction of BiP with misfolded protein ([4]; concentration series of ThT) | Binding of BiP to immobilized protein (ELISA) [5] |
| --- | --- | --- | --- | --- | --- | --- | --- |
| HWDFAWPW [6BB10] | Nothing visible^† | did not bind | has been established | ↓ (a ↓ sign refers to inhibited abolished binding of BiP) | ↓ (a ↓ sign refers to inhibited abolished binding of BiP) | ↓ (a ↓ sign refers to inhibited abolished binding of BiP) |  |
| d-lysozyme: heat-denatured hen egg-white lysozyme |  |  |  |  |  |  | more pronounced |

Reference: US20100015126A1, “Methods of Binding of Cross-Beta Structures By Chaperones” (priority 2006, published 2010)
